# According to US7666644B2, “Glyphosate-N-acetyltransferase (GAT) genes” (Verdia, Inc., priority 2004, dated 2010):
# B1: 18-28D9c: GAT transgene, SEQ ID NO:824 (nucleic acid)
# DNA: ATGATAGAGGTGAAACCGATTAACGCAGAGGATACCTATGAACTAAGGCATAGAATACTCAGACCAAACCAGCCGATAGAAGCGTGTATGTTTGAAAGCGATTTACTTCGTGGTGCATTTCACTTAGGCGGCTTTTACAGGGGCAAACTGATTTCCATAGCTTCATTCCACCAGGCCGAGCACTCGGAACTCCAAGGCCAGAAACAGTACCAGCTCCGAGGTATGGCTACCTTGGAAGGTTATCGTGAGCAGAAAGCGGGATCAACTCTAGTTAAACACGCTGAAGAAATCCTTCGTAAGAGGGGGGCGGACATGCTTTGGTGTAATGCGAGGACATCCGCCTCAGGCTACTACAAAAAGTTAGGCTTCAGCGAGCAGGGAGAGATATTTGACACGCCGCCAGTAGGACCTCACATCCTGATGTATAAAAGGATCACATAA
# modifications: Synthetic nucleic acid sequence; CDS (1)...(441); 18-28D9c
# B2: 20-8H12c: GAT variant, SEQ ID NO:817 (protein)
# chain: MIEVKPINAEDTYELRHRVLRPNQPIEACIFESDLMRGAFHLGGFYGGRLISVASFHQAEHSELQGQKQYQLRGMATLEGYREQKAGSSLVKHAEEILRKRGADLLWCNARTSASGYYKKLGFSEQGEVFDTPPVGPHILMYKRIT
# modifications: 20-8H12c
# B3: 401: native GAT polypeptide corresponding to SEQ ID NO: 6 (protein, listed as Bacillus licheniformis)
# chain: MIEVKPINAEDTYEIRHRILRPNQPLEACMYETDLLGGAFHLGGYYRGKLISIASFHKAEHSELEGEEQYQLRGMATLEGYREQKAGSTLIRHAEELLRKKGADLLWCNARTSVSGYYEKLGFSEQGEVYDIPPIGPHILMYKKLT
# modifications: ST401 GAT
# B4: 0—5D3: evolved GAT gene, SEQ ID NO:193 (nucleic acid)
# DNA: ATGCTAGAGGTGAAACCGATTAACGCAGAGGATACCTATGAACTAAGGCATAGAATACTCAGACCAAACCAGCCGATAGAAGCGTGTATGTATGAAAGCGATTTACTTCGTGGTGCATTTCACTTAGGCGGCTATTACAGGGGCAAACTGATTTCCATAGCTTCATTCCACCAGGCCGAGCACTCAGAACTCCAAGGCCAGAAACAGTACCAGCTCCGAGGTATGGCTACCTTGGAAGGTTATCGTGAGCAGAAAGCGGGATCGAGTCTAATTAAACACGCTGAAGAAATTCTTCGTAAGAGGGGGGCGGACTTGCTTTGGTGTAATGCGCGGACATCCGCCTCAGGCTACTACAAAAAGTTAGGCTTCAGCGAGCAGGGAGAGATATTTGAAACGCCGCCAGTAGGACCTCACATCCTGATGTATAAAAGGATCACATAA
# modifications: Synthetic nucleic acid sequence; 0_5D3
# Experiments:
# O=C(O)CNCP(=O)(O)O = assay: Standard spectrophotometric kcat and KM determination (Example 7); type: biochemical; settings: other: 20 mM HEPES pH 6.8, 10% ethylene glycol, 0.2 mM acetyl CoA, about 23° C.
# Protocol: KM was calculated from the initial reaction rates obtained from concentrations of glyphosate ranging from 0.125 to 10 mM, using the Lineweaver-Burke transformation of the Michaelis-Menten equation. kcat/KM was determined by dividing the value determined for kcat by the value determined for KM.
# soybean plants = assay: T0 soybean greenhouse glyphosate spray, plant discoloration scores; type: in vivo
# Protocol: Soybean plants expressing GAT variant transgenes were produced using the method of particle gun bombardment (see Klein et al. (1987) Nature 327:70-73) using a DuPont Biolistic PDS1000/He instrument. The selection agent used during the transformation process was hygromycin. Either the hygromycin selectable marker gene remained in the transgenic events or the hygromycin gene was excised by methods known in the art. DNA fragments were prepared with a synthetic constitutive promoter, a GAT variant and PinII terminator. The selectable marker gene, comprising the 35S CaMV promoter, HPT gene and NOS terminator, was cobombarded with the GAT gene variant as described above. Bombarded soybean embryogenic suspension tissue was cultured for one week in the absence of selection agent. Embryogenic suspension tissue was placed in liquid selection medium for 6 weeks. Putative transgenic suspension tissue was sampled for PCR analysis to determine the presence of the GAT gene. Putative transgenic suspension culture tissue was maintained in selection medium for 3 weeks to obtain enough tissue for plant regeneration. Suspension tissue was matured for 4 weeks using standard procedures; matured somatic embryos were desiccated for 4-7 days and then placed on germination induction medium for 2-4 weeks. Germinated plantlets were transferred to soil in cell pack trays for 3 weeks for acclimatization. Plantlets were potted to 10-inch pots in the greenhouse for evaluation of glyphosate resistance.
# To determine the level of glyphosate resistance of transgenic soybeans expressing the GAT variant transgenes, T0 plants were sprayed with glyphosate (Roundup ULTRA MAX™) in the greenhouse. Plant resistance levels were evaluated by […] • 7=minor leaf/stem discoloration • 5=worse leaf/stem discoloration • 3=severely discolored plant or dying plant • 1=dead plant
# One to four plants were sent to the greenhouse from each independent transgenic event. An additional 1-2 plants per event were grown in controlled environment growth chambers for seed production and were not sprayed with glyphosate. The greenhouse plants were sprayed at 1×, 2× or 4× glyphosate (1× glyphosate=26 ounces/acre of RoundUp ULTRA MAX™) 3-4 weeks after transfer to soil. The T0 plant discoloration scores with 2× and 4× spray rates are shown in Table 10 and Table 11, respectively.
# [1] = Transfer of the propionyl group from propionyl CoA to glyphosate, DTNB detection; type: biochemical; settings: 1 mM propionyl CoA, 5 mM glyphosate or no glyphosate, 30 minutes
# Protocol: The ability of GAT variants (B6 (SEQ ID NO:7), 0—6D10 (SEQ ID NO:448), 17-15H3 (SEQ ID NO:601), and 20-8H12c (SEQ ID NO:817)) to transfer the propionyl group from propionyl CoA to glyphosate was tested in reaction mixtures containing 5 mM glyphosate or no glyphosate. Propionyl CoA was present at 1 mM. After 30 minutes the reactions were terminated and the presence of free […] was determined by the addition of DTNB.
# [2] = type: physicochemical; settings: buffer, pH 7.2
# Protocol: The half lives of several GAT polypeptides were also measured at 37.5° C. according to the following procedure. GAT polypeptides 401 (SEQ ID NO: 6), 17-15H3 (SEQ ID NO: 601), 20-8H12 (SEQ ID NO: 739), 22-13B12 (SEQ ID NO: 781), 22-15B4 (SEQ ID NO: 946) and 22-18C5 (SEQ ID NO: 795) were incubated in a matrix of 25 mM Hepes, pH 7.2, 10 mM KCl and 10% methanol (“HKM”). At various timepoints, aliquots were withdrawn and assayed in triplicate at 22° C. using the continuous spectrophotometric assay described in Example 7 using saturating concentrations of glyphosate (20 mM for 401, 5 mM for the rest) and AcCoA (167 uM). The standard error at each time point averaged about 2.9%. GAT activity was plotted as a function of incubation time and the data was fitted to a curve for exponential decay (y=e^−x), where y is enzyme activity and x is time in hours, from which half life was calculated.
# [3] = GAT activity with substrate L-aspartate (DTNB); type: biochemical
# Protocol: (§1) GAT activity of several GAT polypeptides of the present invention was evaluated with respect to a number of amino acid substrates. The GAT polypeptide, AcCoA and amino substrate were incubated in 25 mM Hepes, pH 6.8, 10% ethylene glycol in the wells of a 96-well polystyrene plate. After 30 minutes, the reactions were stopped by the addition of 30 μl of 10 mM 5,5′-dithiobis-2-nitrobenzoate (DTNB) in 500 mM Tris, pH 7.5. After 2 minutes, absorbance was read at 412 nm in a Spectramax Plus plate reader (Molecular Devices, Sunnyvale, Calif.).
# [4] = GAT activity with substrate L-serine (DTNB); type: biochemical
# Protocol: as §1
# [5] = GAT activity with other L-amino acid substrates (DTNB); type: biochemical
# Protocol: as §1
# tobacco plants = assay: Herbicide spray tests of GAT expressing tobacco plants; type: in vivo, Nicotiana tabacum
# Protocol: Tobacco shoots generated as described in EXAMPLE 9 were excised from the explants and transferred to basal root induction (BRI) medium composed of half-strength Murashige and Skoog (MS) medium, pH 5.7, with 1.5% sucrose, 0.3% Gelrite, 0-200 uM glyphosate and 400 ug/ml Timentin. Rooted plants and axillary shoots were clonally propagated by cutting the stem and transferring it to fresh BRI medium until the desired number of clones was obtained. Rooted plants were carefully removed from the solid medium. Prior to placing the plants into small pots of soil, the roots were washed to remove any remaining Gelrite. A protective plastic cover was kept over the plants for at least one week until the plants were well established.
# To determine if GAT expressing tobacco plants could tolerate simulated field rate sprays of glyphosate, clonal lines of several events per GAT variant were tested. A typical test was set up as follows: One clone from each event was sprayed with 1 ml of solution containing the isopropylamine salt of glyphosate (Sigma P5671) and 0.125% Triton X-100, pH 6.8 such that the amount of active ingredient sprayed was equivalent to that present in commercial glyphosate products. For example, to achieve 32 oz/acre (1×) of herbicide containing 40% active ingredient (“ai”), 2.4 ul of 40% ai formulation was diluted into 1 ml water and sprayed on a plant in a 4-inch square pot (16 in^2). A mock application (0×) with surfactant only was also included. In some cases a second spray was applied 1-4 weeks later. Plants were kept in controlled growth rooms at 25° C. and 70% humidity with 16 hr light.
# Seed-grown wild type plants were also sprayed. […] All 0× plants were healthy, including the non-GAT control plants. Three weeks later all of the surviving plants were sprayed with an 8× dose.
# [6] = 10 days after 2X glyphosate (1× = 26 ounces/acre)
molecule,measurement,setting,value
"GAT polypeptide (glyphosate-N-acetyltransferase), SEQ ID NO:457 (Bacillus licheniformis DSM 13 = ATCC 14580; A28V/E119K/E65Q/E67Q/E68K/G37R/I132T/I135V/I15L/I2L/K101R/K144R/K58Q/L145I/L97I/R18K/R92K/T89S/V114A/Y130F/Y45F)",Km,O=C(O)CNCP(=O)(O)O,100 µM
same,kcat,O=C(O)CNCP(=O)(O)O,1.97 s⁻¹
"GAT polypeptide (glyphosate-N-acetyltransferase), SEQ ID NO:300 (Bacillus licheniformis DSM 13 = ATCC 14580; A39T/E119K/E67Q/E68K/H57N/I132T/I135V/K58Q/L35S/S62P/V114A)",Km,O=C(O)CNCP(=O)(O)O,650 µM
same,kcat,O=C(O)CNCP(=O)(O)O,4.93 s⁻¹
B1,% EVENTS @ 3-6,soybean plants; 10 days after 2X glyphosate,74% (23)
same,% EVENTS @ 7-8,soybean plants; [6],8% (3)
same,% EVENTS @ 3-6,soybean plants; 10 days after 4X glyphosate,43% (10)
same,% EVENTS @ 7-8,soybean plants; 10 days after 4X glyphosate,8% (2)
B2,glyphosate-dependent hydrolysis of propionyl CoA,[1],showed glyphosate-dependent hydrolysis of propionyl CoA
B3,Half-life,[2],14 h
same,activity with L-aspartate compared with glyphosate,[3],about as active
same,kcat/KM % of glyph,[3]; Substrate Aspartate,85.5%
same,activity with L-serine compared with glyphosate,[4],about 4.7 times
same,kcat/KM % of glyph,[4]; Substrate Serine,471%
same,"number of amino acids with detectable activity, in addition to glyphosate",[5],12
same,activity relative to activity towards glyphosate,"[5]; L-alanine, 1 mM",33%
same,activity relative to activity towards glyphosate,"[5]; L-asparagine, 1 mM",27%
same,activity relative to activity towards glyphosate,"[5]; L-cysteine, 1 mM",50%
same,activity relative to activity towards glyphosate,"[5]; L-glutamate, 1 mM",51%
same,activity relative to activity towards glyphosate,"[5]; L-glutamine, 1 mM",32%
same,activity relative to activity towards glyphosate,"[5]; L-histidine, 1 mM",10%
same,activity relative to activity towards glyphosate,"[5]; L-threonine, 1 mM",250%
same,activity relative to activity towards glyphosate,"[5]; L-tyrosine, 1 mM",18%
same,activity relative to activity towards glyphosate,"[5]; L-valine, 1 mM",12%
same,activity on N-methyl derivatives of amino acids,"[5]; N-methyl derivatives of L-aspartate (2 mM), L-alanine (10 mM) and glycine (sarcosine, 10 mM)",No detectable activity
same,activity relative to activity towards glyphosate,"[5]; glycine, 1 mM",21%
same,activity relative to activity towards glyphosate,"[5]; the other protein amino acids, either undetected or less than 3%",less than 3%
B4,outcome two weeks after glyphosate spray,"tobacco plants; 0.5, 2 or 4× glyphosate (1× = 32 oz/acre of 40% ai), clonally propagated events, average of 5 leaves",survived the spraying procedure without signs of glyphosate damage
same,outcome after second spray with an 8× dose,tobacco plants; 8× glyphosate three weeks later,survived
same,% EVENTS @ 3-6,soybean plants; 10 days after 2X glyphosate,11% (3)
same,% EVENTS @ 7-8,soybean plants; [6],15% (4)
